Assay results: patent US20230087570A1 (NATIONAL CANCER CENTER, published 2023)

Target: T1, mouse TIM-3 expressed on cells (mouse, UniProt Q8VIM0 20-281)
T1 construct: whole, on cells; also called mTIM-3
Experiment: flow cytometry on mouse primary glial cells (FIG. 7 legend)
Description: FACS analysis was performed to determine whether the selected antibody, hTIM-3_NCC1, specifically binds to mouse TIM-3 as well as human TIM-3.
Specifically, 0.5 μg of hTIM-3_NCC1 antibody was reacted to mouse primary glial cells for 30 minutes, and then stained with a secondary antibody (APC-human IgG Fc; Biolegend, cat #409305). In addition, mouse CD11b⁺ cells overexpressing mouse TIM-3 (3×10⁵ cells) were separated using a-BV421-conjugated anti-CD11b antibody (BD, cat #562605) and then 0.5 μg of hTIM-3_NCC1 antibody and PE-conjugated anti-mouse were reacted for 30 minutes. These cells were surface-stained with a secondary antibody (APC-Human IgG Fc) and then measured by flow cytometry.

T1 sequence (Q8VIM0 20-281): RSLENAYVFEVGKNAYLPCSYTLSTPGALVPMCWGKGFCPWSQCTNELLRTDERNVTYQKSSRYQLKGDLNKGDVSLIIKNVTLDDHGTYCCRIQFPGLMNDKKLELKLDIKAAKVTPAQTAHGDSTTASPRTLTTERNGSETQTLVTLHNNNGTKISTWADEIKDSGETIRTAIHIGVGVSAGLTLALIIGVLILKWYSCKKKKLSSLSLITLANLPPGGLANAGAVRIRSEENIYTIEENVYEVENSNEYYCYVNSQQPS

B1: hTIM-3_NCC1 (Fc fusion)
scFv: EVQLVESGGGLVQPGGSLRLSCAASGSIFSNGYMTWYRQAPGKGLELVSSINSRGVTNYADSVKGRFTISRDNSKNTLYLQMNSLRAEDTAVYYCAALLPHEIRKYWGQGTQVTVSSGGGSHGGGSGGGSVDDIQMTQSPDSLAVSLGERATINCKSSQSVFYNSNNKNYLGWYQKKPGQPPKLLIFWASTRESGVPDRFSGSGSGTDFTLTISSLQAEDVAVYYCQQYYSTPRTLGGGTKVDIKR
notes: Human scFv from a naive phage library, tested as scFv-hIgG (hIgG1) and detected with anti-human IgG secondary antibodies; also called scFv-TIM3 #4; ScFV-TIM3 #4; not shown: human IgG1 part (named only as 'hscFv-hIgG1')
binding result: binds
